Measurements as given in article PMC10307800, “Structure of human CALHM1 reveals key locations for channel regulation and blockade by ruthenium red” (Nature Communications, 2023).
“And” between values parts separate entries of the source, which are not always exact repeats. Identical values can stand only once.

Columns and labels:
[1] = biological target: chicken CALHM1Δct (residues 1-291, C-terminal Strep-II tag) (chicken); assay: cryo-EM structure; single-particle 3D reconstruction in lipid nanodiscs (soybean polar extract, MSP2N2); chicken: 20 mM Tris pH 8.0, 150 mM NaCl, 1 mM EDTA; human: 20 mM HEPES-NaOH pH 7.5, 200 mM NaCl, 1 mM EDTA
[2] = biological target: chicken CALHM1Δct (residues 1-291, C-terminal Strep-II tag) (chicken); assay: cryo-EM 2D classification; 'top' views of 2D classification of the same nanodisc samples
[3] = biological target: human CALHM1Δct-Ile109Trp (C-terminal Strep-II tag) (human) (UniProt Q8IU99); assay: cryo-EM structure; single-particle reconstruction in lipid nanodiscs, 20 mM HEPES-NaOH pH 7.5, 200 mM NaCl; with RuR (50 µM RuR, 1 mM EGTA; C8 and C1 maps) and RuR-free (1 mM EDTA)
[4] = biological target: killifish CALHM1Δct (killifish); assay: cryo-EM 2D classification; reanalysis of the publicly available dataset EMPIAR #10444
[5] = biological target: the molecule itself; assay: cryo-EM structure; single-particle 3D reconstruction in lipid nanodiscs (soybean polar extract, MSP2N2); chicken: 20 mM Tris pH 8.0, 150 mM NaCl, 1 mM EDTA; human: 20 mM HEPES-NaOH pH 7.5, 200 mM NaCl, 1 mM EDTA
[6] = biological target: the molecule itself; assay: cryo-EM 2D classification; 'top' views of 2D classification of the same nanodisc samples

## chicken CALHM1Δct (residues 1-291, C-terminal Strep-II tag) (domain or fragment)
[1]
  stoichiometry N: 8
[2]
  stoichiometry N: 8 and 9

## human CALHM1Δct-Ile109Trp (C-terminal Strep-II tag) (from UniProt Q8IU99 1-303) (domain or fragment)
[3]
  stoichiometry N: 8

## killifish CALHM1Δct (domain or fragment)
[4]
  stoichiometry N: 8 and 9

B1: human CALHM1Δct (calcium homeostasis modulator 1, residues 1-303, C-terminal Strep-II tag) (domain or fragment, UniProt Q8IU99 1-303, looked up)
chain: MMDKFRMIFQFLQSNQESFMNGICGIMALASAQMYSAFDFNCPCLPGYNAAYSAGILLAPPLVLFLLGLVMNNNVSMLAEEWKRPPGRRAKDPAVLRYMFCSMAQRALIAPVVWVAVTLLDGKCFLCAFCTAVPVSALGNGSLAPGLPAPELARLLARVPCPEIYDGDWLLAREVAVRYLRCISQALGWSFVLLTTLLAFVVRSVRPCFTQAAFLKSKYWSHYIDIERKLFDETCTEHAKAFAKVCIQQFFEAMNHDLELGHTHGTLATAPASAAAPTTPDGAEEEREKLRGITDQGTMNRLL
notes: calcium homeostasis modulator 1 (CALHM1), human, residues 1-303 (C-terminal truncation; residues 303-346 follow the CTH in the whole protein); Octamer in the 3D reconstruction; nonameric particles were also seen in 2D classes; also called hCALHM1Δct; hCALHM1∆ct; source: HEK293S GnTI- cells, baculovirus infection; purified (Strep-Tactin, SEC), reconstituted into lipid nanodiscs (MSP2N2, soybean …)
[5]
  stoichiometry N: 8
[6]
  stoichiometry N: 9
